Broadly, the Kd is the constant that tells how readily two partners part at equilibrium.

The target of test [1] is recombinant trBcl-2L1 (Trichoplax adhaerens Bcl-2-like protein 1), lacking the 33 N-terminal and 29 C-terminal residues (Trichoplax adhaerens). The experiment in a line: ITC. A general note: In ITC the heat of successive injections is recorded.
The target in test [2] is recombinant trBcl-2L2 (Trichoplax adhaerens Bcl-2-like protein 2), lacking the 7 N-terminal and 34 C-terminal residues (Trichoplax adhaerens). The experiment in a line: ITC.
The target in test [3] is recombinant trBcl-2L1 (Trichoplax adhaerens Bcl-2-like protein 1), lacking the 33 N-terminal and 29 C-terminal residues (Trichoplax adhaerens). Nature of the test: ITC. This is another data set of the same source.
Test [4] has as its target recombinant trBcl-2L2 (Trichoplax adhaerens Bcl-2-like protein 2), lacking the 7 N-terminal and 34 C-terminal residues (Trichoplax adhaerens). Nature of the test: ITC. The source holds these as a separate data set.
Test [5] deals with recombinant human Bcl-2 (residues 10 to 203) (human, UniProt P10415 10-203). The experiment in a line: ITC.
Sequence of recombinant human Bcl-2 (residues 10 to 203) (P10415 10-203): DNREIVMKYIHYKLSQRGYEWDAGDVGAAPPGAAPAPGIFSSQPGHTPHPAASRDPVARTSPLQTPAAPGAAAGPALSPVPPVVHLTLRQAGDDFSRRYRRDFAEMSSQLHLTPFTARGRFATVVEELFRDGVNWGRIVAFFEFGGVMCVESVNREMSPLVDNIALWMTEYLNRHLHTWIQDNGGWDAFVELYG
The target in test [6] is recombinant human Bcl-xL (residues 1 to 209, Δloop45 to 84) (human, UniProt Q07817-1 1-209, Δloop45 to 84). The experiment in a line: ITC.
Test [7] concerns the target T1, recombinant human A1/Bfl-1 (residues 1 to 151) (human, UniProt Q16548 1-151).
T1 sequence (looked up): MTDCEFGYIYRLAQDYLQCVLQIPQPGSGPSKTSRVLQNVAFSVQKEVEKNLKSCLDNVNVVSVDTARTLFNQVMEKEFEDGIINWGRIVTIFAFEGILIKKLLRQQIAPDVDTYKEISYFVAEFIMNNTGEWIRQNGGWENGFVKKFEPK
The experiment in a line: ITC.

Test [8] has as its target recombinant human Mcl-1 (residues 171 to 320) (human, UniProt Q07820 171-320). Nature of the test: ITC.
Test [9] has as its target T2, recombinant human Bcl-w (residues 9 to 152) (human, UniProt Q92843 9-152).
T2 sequence (looked up): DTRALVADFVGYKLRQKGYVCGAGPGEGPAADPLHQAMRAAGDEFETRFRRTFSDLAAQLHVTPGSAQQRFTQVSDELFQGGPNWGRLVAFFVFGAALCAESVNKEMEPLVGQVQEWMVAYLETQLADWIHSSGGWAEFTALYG
Nature of the test: ITC.

The target of test [10] is T3, Flag-tagged trBcl-2L2 (Trichoplax adhaerens, UniProt A0A1B1IJN9 1-211).
T3 sequence (looked up): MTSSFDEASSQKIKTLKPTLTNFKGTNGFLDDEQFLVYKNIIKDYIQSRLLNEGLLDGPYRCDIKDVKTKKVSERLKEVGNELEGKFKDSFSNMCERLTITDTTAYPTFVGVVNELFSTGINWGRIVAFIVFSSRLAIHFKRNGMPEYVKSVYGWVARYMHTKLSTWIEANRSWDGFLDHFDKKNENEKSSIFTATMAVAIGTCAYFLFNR
The experiment in a line: FRET or BRET. (In general: BRET reads energy transfer from a luciferase to a nearby fluorophore.)

Test [11] has as its target T4, Flag-tagged trBcl-2L1 (Trichoplax adhaerens, UniProt A0A1B1IJP0 1-215).
T4 sequence (looked up): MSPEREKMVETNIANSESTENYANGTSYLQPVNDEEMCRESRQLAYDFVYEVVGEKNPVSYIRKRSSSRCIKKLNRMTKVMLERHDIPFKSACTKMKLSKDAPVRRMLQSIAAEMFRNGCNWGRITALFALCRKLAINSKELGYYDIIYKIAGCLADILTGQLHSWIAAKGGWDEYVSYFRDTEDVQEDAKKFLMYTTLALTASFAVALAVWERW
The experiment in a line: FRET or BRET.

Like-named read-outs stand apart in the source and are kept apart here.

Sequence of recombinant human Mcl-1 (residues 171 to 320) (Q07820 171-320): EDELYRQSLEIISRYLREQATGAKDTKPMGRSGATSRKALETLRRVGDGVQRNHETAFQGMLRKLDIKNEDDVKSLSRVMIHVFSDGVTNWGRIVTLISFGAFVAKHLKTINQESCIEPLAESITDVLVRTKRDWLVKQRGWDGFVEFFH

Take hsBid BH3 peptide: the figures for the Kd in test [1] and in test [2] were 0.124 µM and 0.17 µM, respectively.
For hsBax BH3 peptide, the Kd is 0.007 µM in test [1] and 0.015 µM in [2].
Turning to hsPuma BH3 peptide, the values for the Kd in [1] and in test [2] were 0.005 µM and 0.081 µM, respectively.
As for hsBim BH3 peptide, the values for the Kd in [1] and in test [2] were 0.083 µM and 0.041 µM, respectively.
PSSPTSEIGRHLAQLGDSYSVRFQNE [trBak BH3 peptide]: the Kd was found to be 1.43 µM in test [3]; 0.563 µM in [4]; 0.045 µM in test [5]; 0.197 µM in test [6]; 0.013 µM in test [7]. Also, the binding result in [8] and in test [9] was “binds” each time.

B1: EGFP-tagged trBax (natural protein, Trichoplax adhaerens, UniProt A0A1B1IJP1 1-241, looked up)
chain: MADFTYVLITRSISTIFSSSCLIAMAHVKSVTSTPTTTTTTTTQSCPRREENLKEIAAESKKLFLDFIADRSAKDGQDQGCISQLTREHNELQIEPTSPTIQVARTIRQIGDELDSDPHLNGLLHKLHVTSSTAYSTFRRVAMRIFQDGQFNWGRIITLFFFGYRLTIRVLSESPIVEMIISWIARFIYEICSFWIAESGGWDAITQYIQQADWKNKYTLGLIAVGVLVTAFVTWQRYNSS
On to B1, for which the FRET efficacy in test [10] amounted to 2.81%; in test [11], 5.84%.

B2: EGFP-tagged trBak (natural protein, Trichoplax adhaerens, UniProt A0A1B1IJN7 1-251, looked up)
chain: MSSTITIAESLENGENNDEQEEANTSRSQFRVTRAQVIRRQLSANPAHLPVSEQEVINETSSIFRSFVVESYQAERDGGIIAEEVRSFADQVQSSSNQTITPSSPTSEIGRHLAQLGDSYSVRFQNEFRLMITHLDINPGTAYRTFAGVARRLFRDGISWRRIVTLMAFGYQIAIDVMRSGVQGFLSRICNFIVRFISGEHIANWIARQGGWRAARYEGLASPGWPAIIGVATAAAASVFGVLWLSGYFRE
Regarding B2, the figures for the FRET efficacy in test [10] and in test [11] were 5.45% and 11.2%, respectively.
As to IEPTSPTIQVARTIRQIGDELDSDPHLN [trBax BH3 peptide], the Kd in test [3] worked out at 0.426 µM; in test [4], 0.728 µM; in test [5], 3.06 µM; in test [6] it was 0.877 µM; in test [7] it was 0.135 µM; in [8], 0.067 µM. In test [9], the Kd is 0.767 µM.

For the origin of these results see paper PMC7527217 (Science Advances, 2020).
